Laboratory results from patent US20230340159A1 (published 2023).

T1: human EpCAM (human, UniProt P16422 24-265, limits assumed)
T1 sequence (looked up): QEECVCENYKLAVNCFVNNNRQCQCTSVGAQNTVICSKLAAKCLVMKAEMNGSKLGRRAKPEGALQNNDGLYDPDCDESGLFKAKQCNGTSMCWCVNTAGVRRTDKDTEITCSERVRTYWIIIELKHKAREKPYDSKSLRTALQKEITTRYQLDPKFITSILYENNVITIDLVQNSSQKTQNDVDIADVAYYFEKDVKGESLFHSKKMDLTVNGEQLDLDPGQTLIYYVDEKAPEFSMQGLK

B1: hVIB-13 (VHH)
VHH: QVQLVESGGGLVQPGGSLTLSCAASGTGSIFSINLMGWYRQAPGKQRELVARITSGDSTVYADSVKGRFTISRDNSKNTLYLQMNSLRPEDTAVYYCNLLLRSSPGATTPYWGQGTLVTVSS
notes: Tied by label only (hVIB-13 = h13); also called EpCAM h13; sdABD-EpCAM h13
B2: hVIB-23 (VHH)
VHH: QVQLVESGGGLVQPGGSLTLSCVISGSFSALWAMRWYRQAPGQQRELVASSRGGTTSYADSVKGRFTISRDNSKNTLYLQMNSLRPEDTAVYYCNAIDGHLAYWGQGTLVTVSS
notes: Tied by label only (hVIB-23 = h23); also called EpCAM h23; sdABD-EpCAM h23

Legend:
cyno EpCAM [1] = target: cyno EpCAM (cyno); test: ratio of cyno to human binding affinity
cyno EpCAM [2] = target: cyno EpCAM (cyno); test: column 'Cyno binding affinity (nM)'; method not stated
human EpCAM = target: T1, human EpCAM; test: column 'Human binding affinity (nM)'; method not stated

Row | Binder | Cyno/Human cross reactivity (cyno EpCAM [1]) [ratio cyno/human] | Kd (cyno EpCAM [2]) [nM] | Kd (human EpCAM) [nM]
1 | B1 | 4.5 | 12.7 | 2.8
2 | B2 | 12.6 | 58.8 | 4.1
